According to the supplement of paper PMC9170038:

System: MS2 coat protein
Experiment: apparent KD of MS2 coat protein; designed switch direction (-1 OFF switch, 1 ON switch): 1; higher = weaker reporter binding
Procedure, shortened: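 Designed RNA switches with common flanks were made on Illumina chips by stalled E. coli RNA polymerase. Titration with SNAP-549-labelled MS2 coat protein doubled from 0.7 or 1.5 nM up to 3 µM. Apparent KD is each design's median over clusters after curve-fitting normalised fluorescence.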

[1] = Eterna round: R95, input ligand: FMN 200 uM
[2] = Eterna round: R95, input ligand: microRNA oligo, concentration not stated
[3] = Eterna round: R95, input ligand: none
[4] = input ligand: microRNA oligo, concentration not stated

Row | Sequence | apparent KD of MS2 coat protein [1] | apparent KD of MS2 coat protein [2] | apparent KD of MS2 coat protein [3] | apparent KD of MS2 coat protein (input ligand: FMN 200 uM) | apparent KD of MS2 coat protein [4] | apparent KD of MS2 coat protein (input ligand: none)
1 | UCUUGGUUUUUGCUCGUUUUUUGUGUUGAACAUGAGGAUCACCCAUGUAUUGUACAGUCCAAUUUAAUAAUGGUCCA [JMF 4] (puzzle: Sensor for hsa-mir-208a) | 34.2 nM | 27.9 nM | 41.6 nM |  |  | 
2 | AGACACAUGAGGAUCACCCAUGUUACGAGCUUAGCUCGGACACAGGAUAUCCGGUCCUAGAGACCGGAGAAGGGUGGCUGAAAA [Zara MOD2] (Eterna round: R96, puzzle: Same State NG 3) |  |  |  | 728 nM | 212 nM | 587 nM
3 | ACCCGCGACGGAGGAUAUGGGCACUCGGCGAAAUAAACCGCCAUAACAUGAGGAUCACCCAUGUCCCAGAAGGCCGCCGCAAAC [Leatve] (Eterna round: R96, puzzle: Same State NG 2) |  |  |  | 92.3 nM | 255 nM | 505 nM
4 | GCCGGCUAAUGAGGAUAUGGCACCUUAUUGGUGCCAGAAGGCAUGUCAAUUGACAUGAGGAUCACCCAUGUAUUAUAGUUGGCG [salish99_SSNG1_r04_603] (Eterna round: R96, puzzle: Same State NG 1) |  |  |  |  | 211 nM | 
5 | AUUCGUUAGAUAGGAUAUCACCAUACAUGAGGAUCACCCAUGUUUACCACGCUGGUUUUUCAUACUGAGAAGGAUCUUGAUGAC [JR_SSNG2_Sub006] (Eterna round: R96, puzzle: Same State NG 2) |  |  |  | 20.7 nM | 16.7 nM | 30 nM
6 | CGGCGCUGUUGAGAGGAUAUGCGGUGAUGGACAUGAGGAUCACCCAUGUUAGCGAUAGCAUUACGGUAGAAGGCUCUACAGCUGU [Soteed Omei mod 11] (puzzle: Same State 2) |  | 21.7 nM |  |  |  | 
7 | GCCGCGUUUCGCGCCUACAUGAGGAUCACCCAUGUUUGUAGGCAGGAUAUCGUCCGCUCUGCGGGCGAGAAGGGCUGUUGUGGU [salish99_SSNG3_R04_024] (Eterna round: R96, puzzle: Same State NG 3) |  |  |  | 65.6 nM | 58.1 nM | 86.7 nM
8 | UUUAGUUGCGGGCAGGAUAUGUAUUAAAAUACAUGAGGAUCACCCAUGUGGGACCGAAAAGGUCUACAGAAGGGCCAAUCGCGAC [Laonerce - 21] (puzzle: Same State 2) | 17.1 nM | 53.3 nM | 77.1 nM |  |  | 
9 | UAUCCAUAGAUAGGAUAUCAGUAUACAUGAGGAUCACCCAUGUUAUAUUUGGUUUUAAUUUAGUCUGAGAAGGAUCUUGAUGAA [SameState NG2 #2] (Eterna round: R96, puzzle: Same State NG 2) |  |  |  | 14.7 nM | 11.9 nM | 15.3 nM
10 | UCUUGGUUUUUGCUCGUUUUUUGUGUUGAACAUGAGGAUCACCCAUGUAUUGUACGGUCCAAUUUAAUAGUGGUCCG [JMF 24] (puzzle: Sensor for hsa-mir-208a) | 25.5 nM | 15.3 nM | 28 nM |  |  | 
11 | UUGAUGUACUGAGGAUAUCGUGUCGUCUGUUUUUACAUGAGGAUCACCCAUGUGGGUUGUGGUAUCGAGAAGGCAGUUUUCUUA [JR_SSNG2_Sub030] (Eterna round: R96, puzzle: Same State NG 2) |  |  |  | 306 nM | 560 nM | 582 nM
12 | CAGCGCUGUCGAGAGGAUAUGCGGUGAUGGACAUGAGGAUCACCCAUGUUAGCGAUAGUAUUACGGUAGAAGGCUCUACAGCUGC [Soteed - 11] (puzzle: Same State 2) |  | 43.6 nM |  |  |  | 
13 | UUUUUUUUUUAGAGACAAGCUUUUUGAUCACAUGAGGAUCACCCAUGUCUCGUCUUAUUUUUUUUUUUUUUUUUUUU [BA Sensor hsa-mir-208a - 2 - 4] (puzzle: Sensor for hsa-mir-208a) | 37.3 nM | 17.5 nM | 103 nM |  |  | 
14 | UUACUCAUGUAAGGAUAUGCAGCCGAAACGGCUGCAGAAGGUACUAUAAUACAUGAGGAUCACCCAUGUCUUUUUAAUUUUUAC [Mat - Same State NG 1 - JL mod - D70] (Eterna round: R96, puzzle: Same State NG 1) |  |  |  | 47.5 nM | 37 nM | 44.1 nM
15 | UGGCUCAGACUAGGAUAUGAUCAUGGCGCUUCGGCGCAUACAUGAGGAUCACCCAUGUAAAGUGAUCAGAAGGAGUCUGAGCCU [SSNG2/7-C3] (Eterna round: R96, puzzle: Same State NG 2) |  |  |  | 14.2 nM | 10.6 nM | 19.7 nM
16 | GAGUAGUUGGGAGGAUAUCGAUUGUUAUAGAAUCGAGAAGGUUUUAACAUGAGGAUCACCCAUGUAGGACUAUUCCUGUGUAUC [Parity 73 - Jieux - Same State NG 1] (Eterna round: R96, puzzle: Same State NG 1) |  |  |  | 127 nM | 68.5 nM | 107 nM

Row | Sequence | apparent KD of MS2 coat protein [1] | apparent KD of MS2 coat protein [2] | apparent KD of MS2 coat protein [3] | apparent KD of MS2 coat protein (input ligand: FMN 200 uM) | apparent KD of MS2 coat protein [4] | apparent KD of MS2 coat protein (input ligand: none)
17 | UUAGAAUUGCAAGGAUAUCUUAUUUAGAUAGUAAGAGAAGGUGCUUUAUAGUUACAUGAGGAUCACCCAUGUAUUUCUUUUUAU [JR_SSNG1_Sub061] (Eterna round: R96, puzzle: Same State NG 1) |  |  |  |  | 16.6 nM | 
18 | AGUAUUAAUGCAGGAUAUGAUUAACAUGAGGAUCACCCAUGUGGUGUUGUGAGUAAGGAGAGUGAUCAGAAGGGCAUUUUUUUU [JMF's solution 38] (Eterna round: R96, puzzle: Same State NG 2) |  |  |  | 414 nM | 175 nM | 502 nM
19 | GUUACAUGAGGAUCACCCAUGUAUGUGUGGGAGUAAGUGUCUUAGGAUAUCUAUGAUUUAAAUUAAGAGAAGGAAGAUUGUUGU [JMF's solution 11] (Eterna round: R96, puzzle: Same State NG 3) |  |  |  |  | 84.2 nM | 
20 | ACGCAGCUGGGUGAGGAUAUCGGUGGUACUACAUGAGGAUCACCCAUGUCCGAAGCUCGGACCUCCGAGAAGGCGCCCGGCUGCG [Soinraesar Omei Mod 3] (puzzle: Same State 2) |  | 184 nM |  |  |  | 
21 | AACAAGCACAUGAGGAUCACCCAUGUGAGAAUAAAACCCUCAUAGGAUAUCCGCGGUUAACUCCCGGAGAAGGGUGAGACUCCU [Edtiedus] (Eterna round: R96, puzzle: Same State NG 3) |  |  |  | 266 nM | 429 nM | 390 nM
22 | ACAUGAGACGGAGGAUAUGUUGUACCUACAUGUGACAUGAGGAUCACCCAUGUGGUAAGUAUGAUACAGAAGGCCGAGAUAUGU [Equivalance 58 - Jieux - Same State NG 2] (Eterna round: R96, puzzle: Same State NG 2) |  |  |  | 13.6 nM | 13.2 nM | 18.9 nM
23 | AACAUACAUGAGGAUCACCCAUGUUCCGGCAGGACAGGAUAUACAUCGAAAGUGUUAUAAGUAGAAGGGUCAUAAA [JR_SS001_Sub012] (Eterna round: R96, puzzle: Same State 1) |  |  |  | 63.4 nM | 56.6 nM | 79.8 nM
24 | GUGGUCAGACAUGAGGAUCACCCAUGUGGAAUAAAUAACGGACAGGAUAUAAAAUAUAGGAUAUAUUAGAAGGGUUGAUUGGUG (Eterna round: R96, puzzle: Same State NG 3) |  |  |  | 43.7 nM | 38.1 nM | 68.4 nM
25 | CACAUCCAGGUAGGAUAUGAGGUGCCAUAGGGAAAAGCCUAUGGACAUGAGGAUCACCCAUGUCCUCAGAAGGGCCGGACGUGA [Ceerbearre] (Eterna round: R96, puzzle: Same State NG 2) |  |  |  | 26.5 nM | 79.6 nM | 96.7 nM
26 | UUGCUCGUGUGAGGAUAUGCAGCCGUUUCGGCUGCAGAAGGUACUAUAAUACAUGAGGAUCACCCAUGUCUCUGUUGUUUCGUG [salish99_SSNG1_r04_931] (Eterna round: R96, puzzle: Same State NG 1) |  |  |  | 27.3 nM | 21 nM | 27.5 nM
27 | UGACACACGGCAGGAUAUCGAUAGCAAAGCUAUCGAGAAGGGCCUCAUGUCGUGGAAACGUGACAUGAGGAUCACCCAUGUCGC [Omei SS(NG)1 Cv12] (Eterna round: R96, puzzle: Same State NG 1) |  |  |  | 72 nM | 12.6 nM | 26.6 nM
28 | GUGGUCAGACAUGAGGAUCACCCAUGUGGAAUAAAUAACACACAGGAUAUGGAAUAUAAAAUAUACCAGAAGGGUGGAUUGGUG (Eterna round: R96, puzzle: Same State NG 3) |  |  |  | 157 nM | 226 nM | 326 nM
29 | AGUUGAAAUACAGGAUAUAUAUUAUUUUUAUUUAUAGAAGGGUAAUCACAUGAGGAUCACCCAUGUAUAUACGAGGAAGAAGAG [JMF's solution 1] (Eterna round: R96, puzzle: Same State NG 1) |  |  |  |  | 182 nM | 
30 | AACAUGUGGUGUCACAUGAGGAUCACCCAUGUGGUAAAACCUGAGGAUAUAACGAACCAAAUCAAUUAGAAGGUAGGAUCACAA [AK SSNG3-V2-18] (Eterna round: R96, puzzle: Same State NG 3) |  |  |  | 59.7 nM | 46.5 nM | 64.2 nM
31 | GCAGAACAUGAGGAUCACCCAUGUCUCAAAUAUUGAGGAUAUGGACACGGUAUAUCCGAACCAGAAGGCAAACUGC [SS1 Teenbexe 19] (puzzle: Same State 1) | 55.8 nM | 74.5 nM | 64 nM |  |  | 
32 | UAAUAAAAGGAUAUACAUGAGGAUCACCCAUGUCCGUCUGCCAAGGAUAUCUAGGAUCAAGCAGCAGAGAAGGUGGCACGCCAC [Eternabot solution 35] (Eterna round: R96, puzzle: Same State NG 3) |  |  |  | 22.3 nM | 17.2 nM | 18.3 nM
